According to patent US20240254166A1 (University of California, published 2024):

Target: T1, T-Alb-VFP (human, UniProt P02768 25-609)
T1 construct: mature;domain: transmembrane domain; also called tethered Alb
Test: FRET (donor photobleaching), HEK293T cells

B1: CiHv1-TFP (other)
chain: MEGDNCNKSRHKSHNMINPNYASVRCTQPLPSVIQLRSRNKMIGITEDPSSDSEPVSSNQPLLLTNLSYEVHTFNDNNNHERPAPQEQSTQNTMISMQSEQKSDRFTASNLGMFQYMKFEIGEDGDDHEEEAILTNREKLRHILHSKPIHVAIIVLVVLDSFLVVGELLIDLKVIIVPHGNPAPEILHGFSLSILSIFMVEIALKIIADHRHFIHHKVEVLDAVVVVISFGVDIALIFVGESEALAAIGLLVILRLWRVFRIINGIIVTVKTKADDRVHEIKKKNSELELQIHNLEEKLSQKEQDMSRLHEILRCNNIDIPPTVPLTTSVQIHSTTTASADV
notes: whole, on cells
B1: no binding.
